In patent publication US9670249B2, “Amphiphilic peptides and hydrogel matrices thereof for bone repair” (Ben-Gurion University of the Negev Research and Development …, priority 2006, dated 2017):
No end group written: not given here.

How the values were obtained:
[1] = Hydrogel formation by dissolving peptides in NaOH solution; format: physicochemical; settings: for Resultant pH / Self supporting gel formation assigned+: 4% weight peptide in 100 μl NaOH solution; for pH at which hydrogel is stabilized / formed: 0.023M peptide in NaOH solutions
Description: In general the matrix can be formed in the following way: dissolving the peptides at high pH above about 8) using either buffer (Tris) or NaOH. With the addition of the peptide the pH of the mixture drops and hydrogel may form. The peptide that is dissolved in alkaline solution can be titrated with HCl to a pH ˜7 to form yield a gel. The same can be done with HA or other mineral particles incorporated in the first step […]. Upon gelation the particles get trapped in the gel.
Four peptides were tested for their tendency to form hydrogels as function of pH and Ca^+2 ion concentrations. The peptides are 13 amino acids long having the sequence P-Y-(Z-Y)n-P, wherein n=5 and Y and Z are alternating hydrophilic (Y) and hydrophobic (Z) amino acids:
The experiment goal was to find appropriate conditions for hydrogel formation at physiological pH values (˜7.2) assuming that the type of amino acids in the dyads will determine the propensity of the system to form hydrogles thus the pH and the Ca^+2 ionic concentration of the system.
In an alkaline solution the acidic amino acid side chains tend to be negatively charged. Under these conditions charge-charge repulsive forces keep the peptides dissolved in solution. Upon lowering the pH the peptides which become uncharged undergo self-assembling through inter-strand hydrogen bonding, to form fibrous structure (FIG. 3) that stabilizes highly hydrated-gel, hydrogel. […] All the peptides lowered the pH of the solution to about 6-8 (Table 1).
In the next set of experiments the hypothesis that the more hydrophobic side chains would stabilize the beta-sheet fibril thus hydrogel formation, at higher pH values, was tested. Table 2 summarizes the effect of the hydrophobic side chain on the pH at which hydrogel is obtained. PLE-13 and PFE-13 were dissolved in different NaOH solutions to the same molar concentration (0.023M). […]

[2] = as above; format: physicochemical; settings: 4% weight peptide in 100 μl NaOH solution, NaOH conc. 0.03

pH at which hydrogel is stabilized / formed [1] | Substance | Resultant pH ([1]; NaOH conc. 0.03) | Resultant pH ([1]; NaOH conc. 0.05) | Self supporting gel formation assigned+ ([1]; NaOH conc. 0.05) | Self supporting gel formation assigned+ [2]
 | (Phe-Asp)6 (FDFDFDFDFDFD) | ~6 | ~7 |  | 
 | Ac-Pro-Asp-(Phe-Asp)5-Pro-NH2 (Ac-PDFDFDFDFDFDP-NH2) | ~6 | >7.5 | Viscous liquid | 
~7 | PDFDFDFDFDFDP [PFD-13, PD(FD)5P] |  |  |  | 
> 7 | PEFEFEFEFEFEP [PFE-13, PE(FE)5P] |  |  |  | 
~6.5 | PELELELELELEP [PLE-13, PE(LE)5P] |  |  |  | 
 | Pro-Asp-(Phe-Asp)6 (PDFDFDFDFDFDFD) | ~6 | ~7 | +after several hrs. | 
 | Pro-Asp-Phe-Asp (PDFD; printed: Pro-Asp-Phe-Asp) | ~3 | ~4 | liquid | liquid

Substance | pH at which hydrogel is stabilized / formed [1] | Resultant pH ([1]; NaOH conc. 0.03) | Resultant pH ([1]; NaOH conc. 0.05) | Self supporting gel formation assigned+ ([1]; NaOH conc. 0.05) | Self supporting gel formation assigned+ [2]
PDLDLDLDLDLDP [PLD-13, PD(LD)5P] | forms hydrogel at lower pH compared to that of PFD-13 |  |  |  | 
